The nature of data set [1]: Color change test (storage stability in solution). In kind it is physicochemical. Details: key: −: no or very slight noticeable change (colorless or light yellow); +: slight; ++: moderate; +++: extreme. The conditions noted are these: 50 mM in 50 mM potassium phosphate pH 7.0, 40° C. How it is done: The compounds I to IV synthesized in Example 4 and vitamin C (Sigma Aldrich) were independently dissolved in 50 mM potassium phosphate of pH 7.0 at a concentration of 50 mM, and stored in an incubator at 40° C. for three weeks. Thereafter, the compounds and vitamin C were evaluated for color change according to the standard criteria, and the results are given in Table 2, below.

Data set [2] concerns the target mushroom tyrosinase (Agaricus bisporus, UniProt C7FF04). The data set is described as follows: Inhibitory activity against tyrosinase. In kind it is biochemical, mushrooms. The conditions noted are these: tyrosine substrate, pH 6.8, 37° C.; read-out: IC50 (compound concentration to inhibit 50% of tyrosinase activity). The procedure:
Tyrosinase was purchased from the Sigma Company, which was isolated from mushrooms and purified. Tyrosin as a substrate for the purified mushroom tyrosinase was prepared by dissolving in 0.05 M potassium phosphate buffer (pH 6.8) in an amount of 0.3 mg/ml. The compounds and vitamin C were dissolved in distilled water at a concentration of 10 mM, and diluted with distilled water to suitable concentrations.
0.5 ml of the tyrosine solution and 0.5 ml of a buffer were put into a test tube, and 0.5 ml of the diluted compound or vitamin C was added to the test tube. After each test tube was incubated in an incubator at 37° C. for 10 min, 0.05 ml of tyrosinase (2,000 U/ml) was added to each test tube, followed by incubation at 37° C. for 10 min. A sample added with 0.5 ml distilled water instead of the compound was used as a control. Thereafter, each test tube was rapidly cooled on ice to terminate the reaction. Absorbance at 475 nm was measured using a spectrophotometer. Inhibition rate against tyrosinase was calculated using the measured absorbance according to the following Equation 1, and IC50 values (compound concentration to inhibit 50% of tyrosinase activity) were then determined. Inhibition rate (%)=(A−B)/A×100 Equation 1
wherein, A is an absorbance at 475 nm of a sample not containing an inhibitor, and B is an absorbance at 475 nm of a sample containing an inhibitor.

Data set [3] concerns male Hartley guinea pigs. The data set is described as follows: Photosensitization test (Adjuvant & Strip method). The format is in vivo. The procedure:
A photosensitization test for the compound II-4 was carried out according to an Adjuvant & Strip method using male Hartley guinea pigs. After four sites to be sensitized were selected at the cervical and dorsal skin of the guinea pigs, an emulsion of WFI and FCA were intradermally injected to each of the selected sites. The sensitized sites were stripped only in a degree of inducing weak erythema, and covered with 0.01 PBS (excipient group), the compound II-4 (test group) and CP (chlorpromazine; positive control group) in a non-occlusive manner. After two hours, long wave-length UV light of about 10 J/cm^2 was irradiated to the test substance-applied sites. 24 hrs, 48 hrs and 72 hrs after UV irradiation, signs of photosensitization were investigated.

In data set [4] the test system is male Hartley guinea pigs. In words: Phototoxicity test. The procedure: Each of the test samples was applied to the skin of guinea pigs, and the guinea pigs were exposed to ultraviolet A (UVA) radiation. Then, potency to induce phototoxicity was evaluated. Induction of phototoxicity, which is an abnormal response of the skin to a photo-stimulus such as ultraviolet or visible light, occurs non-immunologically by a chemical. Unlike the allergic response, the degree of phototoxicity can be expected by sufficient intensity of radiation and drugs.
CP and 8-MOP were prepared at a final concentration of 10% in DMSO and then diluted to 1%. Each of guinea pigs was fixed on a fixing plate, and the skin of the guinea pig was covered with 50 μl of each of the test samples. Then, the right area of the skin was not exposed to UV light, and the left area of the skin was exposed to UVA light (320 to 380 nm) of 15 J/cm^2, which was irradiated in a distance of about 10 cm for about 2 hrs. 24 hrs, 48 hr and 72 hrs after UVA irradiation, photosensitization in the treatment group was evaluated in comparison with that in the positive control groups.

The mark [5] stands for this setting: Areas exposed to UVA, applied concentration 0.1%.
The mark [6] stands for this setting: Areas exposed to UVA, applied concentration 1%.
Where [7] appears, read: Areas exposed to UVA, applied concentration 10%.
Setting [8] is: Areas not exposed to UVA, applied concentration 0.1%.
The mark [9] stands for this setting: Areas not exposed to UVA, applied concentration 1%.
Where [10] appears, read: Areas not exposed to UVA, applied concentration 10%.

Numbered stars: 1 amine (or outer) side, 2 acyl side, 3 side chain; on linkers, the order of the positions; unused ones are H or OH. Ends that are not written are not given here. * marks the point of attachment. Suc = O=C(CCC(=O)[*:2])[*:1]; Propyl = CCC*

Chain of mushroom tyrosinase (C7FF04 1-392): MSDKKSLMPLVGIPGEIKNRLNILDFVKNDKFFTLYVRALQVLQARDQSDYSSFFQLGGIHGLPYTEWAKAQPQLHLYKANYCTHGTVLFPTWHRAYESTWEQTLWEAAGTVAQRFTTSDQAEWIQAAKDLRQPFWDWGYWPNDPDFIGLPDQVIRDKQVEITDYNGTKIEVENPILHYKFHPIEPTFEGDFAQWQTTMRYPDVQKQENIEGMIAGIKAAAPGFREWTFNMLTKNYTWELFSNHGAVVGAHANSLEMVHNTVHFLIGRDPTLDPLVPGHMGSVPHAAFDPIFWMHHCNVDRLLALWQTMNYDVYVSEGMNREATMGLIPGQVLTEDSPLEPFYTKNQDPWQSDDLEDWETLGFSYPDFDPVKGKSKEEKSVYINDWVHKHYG

“2-(propyl-glycyl-lysyl-histidine)ascorbic acid [IV-2]”: in data set [1], the “Color change After 1 week” value is “−”, the “Color change After 2 weeks” value is given as “+” and the “Color change After 3 weeks” value was “++”.

Regarding “2-(propyl-lysyl-threonyl-threonyl-lysyl-serine(SEQ ID NO:1))ascorbic acid ({ascorbic acid-Propyl}-KTTKS) [IV-4]”, in data set [1], the “Color change After 1 week” value is “−”, the “Color change After 2 weeks” value was “+” and the “Color change After 3 weeks” value is “++”.

As for “5,6-di(succinyl-glycyl-histidyl-lysine)ascorbic acid [III-1]”, in data set [1], the “Color change After 1 week” value is on record as “−”, the “Color change After 2 weeks” value is on record as “+” and the “Color change After 3 weeks” value is “+”.

For “5,6-di(succinyl-glycyl-lysyl-histidine)ascorbic acid [III-2]”, in data set [1], the “Color change After 1 week” value was “−”, the “Color change After 2 weeks” value is reported as “+” and the “Color change After 3 weeks” value is recorded as “+”.

Regarding “5,6-di(succinyl-lysyl-threonyl-threonyl-lysyl-serine(SEQ ID NO:1))ascorbic acid ({ascorbic acid-Suc}-KTTKS; also: two succinyl-linked peptides on one ascorbic acid) [III-4]”, in data set [1], the “Color change After 1 week” value is “−”, the “Color change After 2 weeks” value is on record as “+” and the “Color change After 3 weeks” value is on record as “+”.

For “5-(succinyl-lysyl-threonyl-threonyl-lysyl-serine)ascorbic acid [Compound I-4]”, in data set [1], the “Color change After 1 week” value is “−”, the “Color change After 2 weeks” value is recorded as “+” and the “Color change After 3 weeks” value is given as “+”.

For “6-(succinyl-glycyl-lysyl-histidine)ascorbic acid [II-2]”, in data set [1], the “Color change After 1 week” value is reported as “−”, the “Color change After 2 weeks” value is recorded as “+” and the “Color change After 3 weeks” value is “+”. For the same compound, the IC50 in data set [2] was 700 µM.

Consider `CN(C)CCCN1c2ccccc2Sc2ccc(Cl)cc21` [CP, Chlorpromazine], for which the Stimulation index in data set [3] (Areas exposed to UVA) is 5.8; in data set [3] (Areas not exposed to UVA) it was 0.0. In data set [3] (index of UVA irradiation site minus index of non-irradiation site), the Photosensitization index was 5.8. The “Total score/Site No.” value in data set [4] (male, Hartley, guinea pig, in vivo) is on record as 0 + 0/10.

Take `COc1c2occc2cc2ccc(=O)oc12` [Compound 8-MOP, 8-methoxypsoralen]: the Evaluation result was “Clearly irritating” in data set [4] (setting [5]); “Extremely irritating” in data set [4] (setting [6]); “Extremely irritating” in data set [4] (setting [7]); “Practically non-irritating” in data set [4] (setting [8]); “Clearly irritating” in data set [4] (setting [9]); “Clearly irritating” in data set [4] (setting [10]). The Mean score in data set [4] (setting [5]) turned out to be 2.3; in data set [4] (setting [6]), 3.2; in data set [4] (setting [7]), 4.0; in data set [4] (setting [8]) it was 0; in data set [4] (setting [9]), 1.4; in data set [4] (setting [10]) it was 1.4.

With `NCCCCC(NC(=O)C(Cc1cnc[nH]1)NC(=O)CNC(=O)CCC(=O)OC(CO)C1OC(=O)C(O)=C1O)C(=O)O` (centres unmarked) [Compound I-1, 5-(succinyl-glycyl-histidyl-lysine)ascorbic acid], in data set [1], the “Color change After 1 week” value was “−”, the “Color change After 2 weeks” value is listed as “+” and the “Color change After 3 weeks” value is “+”.

For `NCCCC[C@H](NC(=O)CNC(=O)CCC(=O)OC(CO)C1OC(=O)C(O)=C1O)C(=O)N[C@@H](Cc1c[nH]cn1)C(=O)O` (some centres unmarked) [Compound I-2, 5-(succinyl-glycyl-lysyl-histidine)ascorbic acid], in data set [1], the “Color change After 1 week” value is reported as “−”, the “Color change After 2 weeks” value is “+” and the “Color change After 3 weeks” value is “+”.

As for `O=C(CCC(=O)OC(CO)C1OC(=O)C(O)=C1O)NCC(=O)N1CCCC1C(=O)N1CC(O)CC1C(=O)O` (centres unmarked) [Compound I-3, 5-(succinyl-glycyl-prolyl-hydroxyproline)ascorbic acid], in data set [1], the “Color change After 1 week” value is on record as “−”, the “Color change After 2 weeks” value is reported as “+” and the “Color change After 3 weeks” value is “+”.

Regarding `NCCCCC(NC(=O)C(Cc1cnc[nH]1)NC(=O)CNC(=O)CCC(=O)OCC(O)C1OC(=O)C(O)=C1O)C(=O)O` (centres unmarked) [II-1, 6-(succinyl-glycyl-histidyl-lysine)ascorbic acid], in data set [1], the “Color change After 1 week” value was “−”, the “Color change After 2 weeks” value is reported as “+” and the “Color change After 3 weeks” value is listed as “+”. Besides, the IC50 in data set [2] came to 650 µM.

In the case of `O=C(CCC(=O)OCC(O)C1OC(=O)C(O)=C1O)NCC(=O)N1CCCC1C(=O)N1CC(O)CC1C(=O)O` (centres unmarked) [II-3, 6-(succinyl-glycyl-prolyl-hydroxyproline)ascorbic acid], in data set [1], the “Color change After 1 week” value is given as “−”, the “Color change After 2 weeks” value is listed as “+” and the “Color change After 3 weeks” value is listed as “+”.

As to `O=C(CCC(=O)OCC(OC(=O)CCC(=O)NCC(=O)N1CCCC1C(=O)N1CC(O)CC1C(=O)O)C1OC(=O)C(O)=C1O)NCC(=O)N1CCCC1C(=O)N1CC(O)CC1C(=O)O` (centres unmarked) [III-3, 5,6-(succinyl-glycyl-prolyl-hydroxyproline)ascorbic acid], in data set [1], the “Color change After 1 week” value is on record as “−”, the “Color change After 2 weeks” value is “+” and the “Color change After 3 weeks” value is “+”.

With `NCCCCC(NC(=O)C(Cc1cnc[nH]1)NC(=O)CNCCCOC1=C(O)C(C(O)CO)OC1=O)C(=O)O` (centres unmarked) [IV-1, 2-(propyl-glycyl-histidyl-lysine)ascorbic acid], in data set [1], the “Color change After 1 week” value is given as “−”, the “Color change After 2 weeks” value is listed as “+” and the “Color change After 3 weeks” value was “++”.

For `O=C1OC(C(O)CO)C(O)=C1OCCCNCC(=O)N1CCC[C@H]1C(=O)N1CC(O)C[C@H]1C(=O)O` (some centres unmarked) [IV-3, 2-(propyl-glycyl-prolyl-hydroxyproline)ascorbic acid], in data set [1], the “Color change After 1 week” value is “−”, the “Color change After 2 weeks” value is given as “+” and the “Color change After 3 weeks” value is “++”.

`O=C1O[C@H]([C@@H](O)CO)C(O)=C1O` [Vitamin C, ascorbic acid]: in data set [1], the “Color change After 1 week” value was “+” and the “Color change After 2 weeks” value is listed as “+++”.
